Target: NF-kB1/p50-p50 (recombinant) (UniProt P19838 1-433)
Assay: EMSA; without OGG1, time course; WCL/NE: 10 mM Tris-HCl pH 7.5, 1 mM EDTA, 50 mM NaCl, 2 mM DTT, 5% glycerol, 0.5% NP-40, BSA, poly(I:C), RT 20 min; His-IRF3: 10 mM Tris pH 7.5, 50 mM KCl, 1 mM DTT, 1% glycerol, 5 mM MgCl2, 0.05% NP-40, poly(I:C), RT 30 min
Settings: protein: recombinant; chain copies: 2; label: Cy5 on 3' end of bottom strand (Methods text says 5'-Cy5); blunt

NF-kB1/p50-p50 (recombinant), sequence (P19838 1-433): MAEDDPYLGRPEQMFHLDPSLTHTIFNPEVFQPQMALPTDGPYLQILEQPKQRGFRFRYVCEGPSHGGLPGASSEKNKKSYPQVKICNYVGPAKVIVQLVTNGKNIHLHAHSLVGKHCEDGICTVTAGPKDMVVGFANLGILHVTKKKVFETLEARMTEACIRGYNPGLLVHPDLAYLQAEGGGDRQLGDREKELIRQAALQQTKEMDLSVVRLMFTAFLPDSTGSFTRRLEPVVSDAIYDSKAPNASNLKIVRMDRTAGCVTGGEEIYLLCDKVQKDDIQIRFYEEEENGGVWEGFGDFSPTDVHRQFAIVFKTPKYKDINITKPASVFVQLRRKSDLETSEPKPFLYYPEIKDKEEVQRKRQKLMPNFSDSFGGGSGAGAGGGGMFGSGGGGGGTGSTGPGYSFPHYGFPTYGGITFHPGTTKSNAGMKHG

B1: Pr2 (dsDNA)
DNA 1: CTGTGTTTTCACTTTTCCTACATCAGCTGGGACTGCCCTTCTGTCAGGGATAA
DNA 2: TTATCCCTGACAGAAGGGCAGTCCCAGCTGATGTAGGAAAAGTGAAAACACAG
modifications: 8-oxoG at top position 48
Does B1 bind?
Result: binds
